Results reported in PMC2768378.

Tests used:
[1] = biological target: single chain H2A.Z-H2B (single stranded H2A.Z-H2B protein) (budding yeast); experiment: ITC
[2] = biological target: single chain H2A.Z-H2B (single stranded H2A.Z-H2B protein) (budding yeast); experiment: CPMG relaxation dispersion NMR

B1: Chz.core (residues 71–132 of Chz1) (domain or fragment)
chain: DMDDAKLDALMGNEGEEEEDDLAEIDTSNIITSGRRTRGKVIDYKKTAEELDKKEPSTGSKD
Question: How did the Kd [1] turn out when B1 was run?
Answer: Its Kd is 100 nM.

Question: And the Kd [2]?
Answer: Its Kd is 220 nM.

Question: What about the koff [2] of the same binder?
Answer: The koff was 22 s⁻¹.
